According to patent US7976843B2, “Method for screening peptides for use in immunotherapy” (Institut National de la Santa et de la Recherche Medicale …, priority 2000, dated 2011):

Molecular target: HLA A2.1 molecule (Homo sapiens, UniProt P04439, D140Y/D185E/D98H/E176V/E277Q/G131W/G231S/I119V/I121R/I166T/I218V/L300P/L318F/N151K/N90K/P208A/P217A/Q86G/Q94H/R138H/R169H/T345S)
Assay: Stability of the peptide/HLA A2.1 complex (DC50) on T2 cells, flow cytometry
Format: binding
Conditions: […]; arrow in neighbouring cell gives direction
Protocol: For each incubation time, the cells are then labeled, as indicated above, with the BB7.2 antibody, and analyzed by flow cytometry in order to evaluate the amount of peptide/HLA A2.1 complex present at their surface. […] The DC50 (dissociation complex: DC) is defined as being the time required for the loss of 50% of the HLA A2.1/peptide complexes stabilized at t=0.

Sequence: GILGPVFTL [Flu M58, reference compound]
- DC50 Y1-DC50 WT: =0 hours
